Assay results reported in publication PMC10978931, “Structure and function of Semaphorin-5A glycosaminoglycan interactions” (Nature Communications, 2024).

Key:
[1] = target: the molecule itself; test: crystal structure; Sema5A_(TSR3-4), four crystal forms (apo, nitrate, sulfate, sucrose octasulfate), sitting drop at 20 °C, 1.56-2.72 Å
[2] = target: the molecule itself; test: mass photometry; Sema5A_(sema-TSR1-7) alone, 100 nM (half of it at measurement), 100 mM NaCl

Row | Protein | stoichiometry N [1] | stoichiometry N [2]
1 | human Semaphorin-5A TSR3-4, Sema5A_(TSR3-4) (residues 652P-765T) (domain or fragment, UniProt Q13591 652-765, looked up, C-mannosyl tryptophan at W656 and W659; N-glycans reduced to single residues by EndoF1 (crystals), Semaphorin-5A, human, UniProtKB Q13591, residues 652P-765T (thrombospondin type-1 repeats 3 and 4); The tag was cleaved by HRV 3C protease for crystallization; Inter-protomer disulfides C689-C689' and C733-C733'; source: HEK293T, transfected (with kifunensine for crystallization), purified (Ni-NTA, 3C cleavage, SEC); not shown: 3C-Avi-His6, C-terminal, cleaved) PHMFWTGWGPWERCTAQCGGGIQARRRICENGPDCAGCNVEYQSCNTNPCPELKKTTPWTPWTPVNISDNGGHYEQRFRYTCKARLADPNLLEVGRQRIEMRYCSSDGTSGCST | 2 | –
2 | human Semaphorin-5A ectodomain Sema5A_(sema-TSR1-7) (residues 23E-944S) (domain or fragment, UniProt Q13591 23-944, looked up, Semaphorin-5A, human, UniProtKB Q13591, residues 23E-944S (sema, PSI and TSR1-7 domains); Glycosylated (11 predicted N-glycan sites); also called full-length ectodomain human Sema5A; Sema5A ectodomain; source: HEK293T, transfected, conditioned medium; purified (Ni-NTA, SEC); not shown: His6, C-terminal, kept) EAQGTTQCQRTEHPVISYKEIGPWLREFRAKNAVDFSQLTFDPGQKELVVGARNYLFRLQLEDLSLIQAVEWECDEATKKACYSKGKSKEECQNYIRVLLVGGDRLFTCGTNAFTPVCTNRSLSNLTEIHDQISGMARCPYSPQHNSTALLTAGGELYAATAMDFPGRDPAIYRSLGILPPLRTAQYNSKWLNEPNFVSSYDIGNFTYFFFRENAVEHDCGKTVFSRAARVCKNDIGGRFLLEDTWTTFMKARLNCSRPGEVPFYYNELQSTFFLPELDLIYGIFTTNVNSIAASAVCVFNLSAIAQAFSGPFKYQENSRSAWLPYPNPNPHFQCGTVDQGLYVNLTERNLQDAQKFILMHEVVQPVTTVPSFMEDNSRFSHVAVDVVQGREALVHIIYLATDYGTIKKVRVPLNQTSSSCLLEEIELFPERRREPIRSLQILHSQSVLFVGLREHVVKIPLKRCQFYRTRSTCIGAQDPYCGWDVVMKKCTSLEESLSMTQWEQSISACPTRNLTVDGHFGVWSPWTPCTHTDGSAVGSCLCRTRSCDSPAPQCGGWQCEGPGMEIANCSRNGGWTPWTSWSPCSTTCGIGFQVRQRSCSNPTPRHGGRVCVGQNREERYCNEHLLCPPHMFWTGWGPWERCTAQCGGGIQARRRICENGPDCAGCNVEYQSCNTNPCPELKKTTPWTPWTPVNISDNGGHYEQRFRYTCKARLADPNLLEVGRQRIEMRYCSSDGTSGCSTDGLSGDFLRAGRYSAHTVNGAWSAWTSWSQCSRDCSRGIRNRKRVCNNPEPKYGGMPCLGPSLEYQECNILPCPVDGVWSCWSPWTKCSATCGGGHYMRTRSCSNPAPAYGGDICLGLHTEEALCNTQPCPESWSEWSDWSECEASGVQVRARQCILLFPMGSQCSGNTTESRPCVFDS | – | 2
